Assay results published in patent US6713283B2, “Tyrosylprotein sulfotransferases” (The Board of Regents of the University of Oklahoma, priority 1998, dated 2004).
Positions count from the first letter of the chain named.

Experiments:
TPST = assay: Inhibition of [35S]sulfate transfer in the TPST assay by free peptide; assay type: biochemical; settings: free peptide versus immobilized peptide
Description: (§1) Assay of Sulfotransferase Activity. TPST activity was determined by measuring the transfer of [^35S]sulfate from [^35S]PAPS (Dupont/NEN) to an immobilized peptide. The peptide (QATEYEYLDYDFLPEC (SEQ ID NO:22)) represents the NH2-terminal 15 residues of the mature PSGL-1 polypeptide to which a carboxy terminal cysteine residue was added. […] The peptide was linked via the cysteine residue to iodoacetamide-activated resin (UltraLink™ Iodoacetyl, Pierce) at a density of 1.5-3.0 μmol/ml resin. The enzyme assay was performed by combining 10 μl of peptide-derivitized beads with 2-20 μl of sample in 40 mM PIPES, pH 6.8, 0.3 M NaCl, 20 mM MnCl2, 50 mM NaF, 1% Triton X-100, 1 mM 5′AMP in a final volume of […]. The assay was initiated by addition of 0.5 μCi of [^35S]PAPS (about 1.7 μM). After 30 min at 37° C., the reaction beads were washed extensively with 6 M guanidine at 65° C. and the radioactivity incorporated into the beads determined by liquid scintillation counting. The reaction rate was optimal at pH 6.8-7.0, 0.3 M NaCl, and 2 μM PAPS and was linear with respect to time and sample input. […] One unit of activity was defined as 1 pmol of product formed per minute.

[1] = system: PSGL-1 peptide (QATEYEYLDYDFLPEC); assay: TPST activity assay: transfer of [35S]sulfate from [35S]PAPS to immobilized PSGL-1 peptide; assay type: biochemical, Homo sapiens; settings: for increase in specific activity of 293-T cell extracts compared to mock transfected: PSGL-1 peptide substrate; for Induction-Fold: mean specific activity of TPST transfected vs. mock transfected extracts; for TPST activity in cell-free conditioned media / culture supernatants: conditioned media of transfected CHO-K1 and 293-T cells (full-length enzyme); for Specific Activity / specific activity of 293-T cell extracts: mean ± SD; for Specific Activity: 1 unit = 1 pmol product/min; for specific activity of 293-T cell extracts: 293-T cells transfected with full-length HPC4 fusion cDNA
Description: as §1
Chinese hamster ovary cells (CHO-K1) were grown in high-glucose Alpha modified Eagle's media containing 10% FCS, 2 mM glutamine at 37° C. and 5% CO2. The human embryonic kidney cell line 293-T was grown in low-glucose Dulbecco's modified Eagle's media containing 10% FCS, 2 mM glutamine at 37° C. and 5% CO2. Cells were transfected with empty vector or vector containing cDNAs encoding human TPST-1-HPC4 fusion protein or mouse TPST-1 using Lipofectamine (Gibco/BRL) according to the instructions of the supplier. The media was changed at 24 h and after an additional 24 h the conditioned media was collected. The cell monolayers were washed with Ca^2+/Mg^2+-free Hank's balanced salt solution and the cells released from the plates. The cells were pelleted by centrifugation and extracted with 1% Triton X-100, 0.1 M NaCl, 20 mM TAPS (pH 9.0), 10 μg/ml leupeptin/antipain, 5 mM benzamidine. Extracts and conditioned media were clarified by centrifugation (15 min, 10,000 g) and stored at −80° C.
Expression and characterization of Recombinant TPST-2. Full-length human and mouse TPST-2 were expressed in 293-T cells as HPC4 fusion proteins as described in Experimental Procedures. Cells transfected with empty plasmid or plasmid encoding human and mouse TPST fusion proteins were extracted and assayed for TPST activity and protein content. Extracts were assayed as discussed above using a PSGL-1 peptide substrate (QATEYEYLDYDFLPEC (SEQ ID NO:22)). The specific activity of mock transfected 293-T cell extracts was 0.06±0.01 u/mg (mean±SD, n=6).

[2] = extracts of transfected 293-T cells

With QATEYEYLDYDFLPEC [free peptide] the “IC50 for inhibition of transfer of [35S]sulfate” value (TPST) was “equimolar to the concentration of immobilized peptide in the assay”.

B1: C. elegans TPST-A: C. elegans tyrosylprotein sulfotransferase of 380 amino acids (SEQ ID NO:9), expressed full-length in 293-T cells (protein)
chain: MRKNRELLLVLFLVVFILFYFITARTADDPYYSNHREKFNGAAADDGDESLPFHQLTSVRSDDGYNRTSPFIFIGGVPRSGTTLMRAMLDAHPEVRCGEETRVIPRILNLRSQWKKSEKEWNRLQQAGVTGEVINNAISSFIMEIMVGHGDRAPRLCNKDPFTMKSAVYLKELFPNAKYLLMIRDGRATVNSIISRKVTITGFDLNDFRQCMTKWNAAIQIMVDQCESVGEKNCLKVYYEQLVLHPEAQMRRITEFLDIPWDDKVLHHEQLIGKDISLSNVERSSDQVVKPVNLDALIKWVGTIPEDVVADMDSVAPMLRRLGYDPNANPPNYGKPDELVAKKTEDVHKNGAEWYKKAVQVVNDPGRVDKPIVDNEVSKL
With B1 the “increase in specific activity of 293-T cell extracts compared to mock transfected” value (“increase in specific activity” below) ([1]; 293-T cells) was 40 fold.

B2: rat liver TPST: TPST purified from rat liver microsomes, polypeptide of about 50 kDa (protein)
chain: MVGKLKQNLLLACLVISSVTVFYLGQHAMECHHRIEERSQPARLENPKATVRTGLDIKANKTFTYHKNMPLIFIGGVPRSGTTLMRAMLDAHPDIRCGEETRVIPRILALKQMWSRSSKEKIRLDEAGVTDEVLDSAMQAFLLEVIVKHGEPAPYLCNKDPFALKSLTYLARLFPNAKFLLMVRDGRASVHSMISRKVTIAGFDLNSYRDCLTKWNRAIETMYNQCMEVGYKKCMLVHYEQLVLHPERWMRTLLKFLHIPWNHSVLHHEEMIGKAGGVSLSKVERSTDQVIKPVNVGALSKWVGKIPPDVLQDMAVIAPMLAKLGYDPYANPPNYGKPDPKILENTRRVHKGEFQLPDFLKEKPQTEQVE
For B2, the “specific activity of purified enzyme” value ([1]; rat liver microsomal enzyme after second PSGL-1 peptide column) was “about 2,950 units/mg”.

B3: mTPST-1: Mouse tyrosylprotein sulfotransferase-1 (SEQ ID NO:3), expressed from unmodified pcDNA3.1(+) vector (protein)
chain: B2 chain with T53A, N68D, H350Y
For B3, the Induction-Fold ([1]; 293-T cells) was 74 Fold, the “TPST activity in cell-free conditioned media / culture supernatants” value [1] was “not detectable” and the “Specific Activity” value [1, 2] was 8.10 ± 1.37 (4) units/mg.

B4: mouse TPST-2: Full-length mouse tyrosylprotein sulfotransferase-2 (SEQ ID NO:7) expressed as HPC4 fusion protein (protein)
chain: MRLSVRKVLLAAGCALALVLAVQLGQQVLECRAVLGGTRNPRRMRPEQEELVMLGADHVEYRYGKAMPLIFVGGVPRSGTTLMRAMLDAHPEVRCGEETRIIPRVLAMRQAWTKSGREKLRLDEAGVTDEVLDAAMQAFILEVIAKHGEPARVLCNKDPFTLKSSVYLARLFPNSKFLLMVRDGRASVHSMITRKVTIAGFDLSSYRDCLTKWNKAIEVMYAQCMEVGRDKCLPVYYEQLVLHPRRSLKRILDFLGIAWSDTVLHHEDLIGKPGGVSLSKIERSTDQVIKPVNLEALSKWTGHIPRDVVRDMAQIAPMLARLGYDPYANPPNYGNPDPIVINNTHRVLKGDYKTPANLKGYFQVNQNSTSPHLGSS
modifications: HPC4 fusion tag
With B4 the “specific activity of 293-T cell extracts” value [1] was 2.91±0.86 u/mg and the “increase in specific activity” value ([1]; 293-T cells) was 46 fold.

B5: human TPST-2: Full-length human tyrosylprotein sulfotransferase-2 (SEQ ID NO:5) expressed as HPC4 fusion protein (protein)
chain: MRLSVRRVLLAAGCALVLVLAVQLGQQVLECRAVLAGLRSPRGAMRPEQEELVMVGTNHVEYRYGKAMPLIFVGGVPRSGTTLMRAMLDAHPEVRCGEETRIIPRVLAMRQAWSKSGREKLRLDEAGVTDEVLDAAMQAFILEVIAKHGEPARVLCNKDPFTLKSSVYLSRLFPNSKFLLMVRDGRASVHSMITRKVTIAGFDLSSYRDCLTKWNKAIEVMYAQCMEVGKEKCLPVYYEQLVLHPRRSLKLILDFLGIAWSDAVLHHEDLIGKPGGVSLSKIERSTDQVIKPVNLEALSKWTGHIPGDVVRDMAQIAPMLAQLGYDPYANPPNYGNPDPFVINNTQRVLKGDYKTPANLKGYFQVNQNSTSSHLGSS
modifications: HPC4 epitope tag
With B5 the “specific activity of 293-T cell extracts” value [1] was 7.07±1.28 u/mg and the “increase in specific activity” value ([1]; 293-T cells) was 112 fold.

B6: hTPST-1-HPC4: Human tyrosylprotein sulfotransferase-1 (SEQ ID NO:1) expressed as fusion protein with NH2-terminal HPC4 epitope (protein)
chain: MVGKLKQNLLLACLVISSVTVFYLGQHAMECHHRIEERSQPVKLESTRTTVRTGLDLKANKTFAYHKDMPLIFIGGVPRSGTTLMRAMLDAHPDIRCGEETRVIPRILALKQMWSRSSKEKIRLDEAGVTDEVLDSAMQAFLLEIIVKHGEPAPYLCNKDPFALKSLTYLSRLFPNAKFLLMVRDGRASVHSMISRKVTIAGFDLNSYRDCLTKWNRAIETMYNQCMEVGYKKCMLVHYEQLVLHPERWMRTLLKFLQIPWNHSVLHHEEMIGKAGGVSLSKVERSTDQVIKPVNVGALSKWVGKIPPDVLQDMAVIAPMLAKLGYDPYANPPNYGKPDPKIIENTRRVYKGEFQLPDFLKEKPQTEQVE
modifications: N-terminal HPC4 epitope tag
B6 was tested, and the “specific activity of TPST-1 extracts relative to TPST-2 extracts” value ([1]; 293-T cell extracts, PSGL-1 peptide as substrate) was “comparable”, the Induction-Fold ([1]; 293-T cells) was 80 Fold and the Induction-Fold ([1]; CHO-K1 cells) was 9 Fold. For the same molecule, the “TPST activity in cell-free conditioned media / culture supernatants” value [1] was “not detectable”, the “Specific Activity” value [1, 2] was 8.84 ± 1.53 (5) units/mg and the “Specific Activity” value ([1]; extracts of transfected CHO-K1 cells) was 2.31 ± 0.89 (3) units/mg. For the same molecule, the “specific activity of purified fusion protein” value ([1]; purified from 293-T cell extracts by HPC4 affinity chromatography) was “about 6,300 u/mg”.
